The values below come from publication PMC6768434.

Substrate in this data set: CC(NCCCC[C@H](N)C(=O)O)C(=O)O
The data set can be described thus: purified protein. The conditions noted are these: 50 mM Tris pH 8.0, 5 μM FAD, 25 μM enzyme, 37 °C, CEL 1-13 mM.

B1: C-MnmC (Escherichia coli K-12) (protein)
chain: PCSAPWFNRTGSSKREAAIIGGGIASALLSLALLRRGWQVTLYCADEAPALGASGNRQGALYPLLSKHDEALNRFFSNAFTFARRFYDQLPVKFDHDWCGVTQLGWDEKSQHKIAQMLSMDLPAELAVAVEANAVEQITGVATNCSGITYPQGGWLCPAELTRNVLELAQQQGLQIYYQYQLQNLSRKDDCWLLNFAGDQQATHSVVVLANGHQISRFSQTSTLPVYSVAGQVSHIPTTPELAELKQVLCYDGYLTPQNPANQHHCIGASYHRGSEDTAYSEDDQQQNRQRLIDCFPQAQWAKEVDVSDKEARCGVRCATRDHLPMVGNVPDYEATLVEYASLAEQKDEAVSAPVFDDLFMFAALGSRGLCSAPLCAEILAAQMSDEPIPMDASTLAALNPNRLWVRKLLKGKAVKAG
Turning to B1, the Km came to 4.3 ± 0.6 mM, the turnover number (kcat) came to 0.003 ± 0.00015 s⁻¹ and the kcat/Km came out at 0.7 ± 0.1 M⁻¹ s⁻¹.

B2: MnmC (Escherichia coli K-12) (protein)
chain: MKHYSIQPANLEFNAEGTPVSRDFDDVYFSNDNGLEETRYVFLGGNQLEVRFPEHPHPLFVVAESGFGTGLNFLTLWQAFDQFREAHPQAQLQRLHFISFEKFPLTRADLALAHQHWPELAPWAEQLQAQWPMPLPGCHRLLLDEGRVTLDLWFGDINELTSQLDDSLNQKVDAWFLDGFAPAKNPDMWTQNLFNAMARLARPGGTLATFTSAGFVRRGLQDAGFTMQKRKGFGRKREMLCGVMEQTLPLPCSAPWFNRTGSSKREAAIIGGGIASALLSLALLRRGWQVTLYCADEAPALGASGNRQGALYPLLSKHDEALNRFFSNAFTFARRFYDQLPVKFDHDWCGVTQLGWDEKSQHKIAQMLSMDLPAELAVAVEANAVEQITGVATNCSGITYPQGGWLCPAELTRNVLELAQQQGLQIYYQYQLQNLSRKDDCWLLNFAGDQQATHSVVVLANGHQISRFSQTSTLPVYSVAGQVSHIPTTPELAELKQVLCYDGYLTPQNPANQHHCIGASYHRGSEDTAYSEDDQQQNRQRLIDCFPQAQWAKEVDVSDKEARCGVRCATRDHLPMVGNVPDYEATLVEYASLAEQKDEAVSAPVFDDLFMFAALGSRGLCSAPLCAEILAAQMSDEPIPMDASTLAALNPNRLWVRKLLKGKAVKAG
B2: the Km is given as 5.2 ± 1.3 mM, the turnover number (kcat) is 0.000667 ± 6.67e-05 s⁻¹ and the kcat/Km was determined as 0.133 ± 0.0167 M⁻¹ s⁻¹.

In general, Km refers to the concentration of substrate that gives half-maximal velocity. As usually defined, the kcat is the maximal rate divided by the concentration of active sites. The term kcat/Km denotes the turnover number divided by the Michaelis constant.
